Measurements published in the supplement of paper PMC11316812.
± gives the standard deviation of the averaged measurements.

Tests used:
MCF7 = assay: percentage of EdU-negative (G0-arrested) nuclei per well, 72 h; higher = more G0 arrest; conditions: reference: sequence is the full UniProt precursor, the tested protein was the secreted form or ectodomain
hTERT-HMEC = assay: as above; conditions: reference: sequence is the full UniProt precursor, the tested protein was the secreted form or ectodomain
[1] = protein concentration 0.0225 µM
[2] = protein concentration 0.0197143 µM
[3] = protein concentration 0.197143 µM
[4] = protein concentration 0.02075 µM
[5] = protein concentration 0.2075 µM
[6] = protein concentration 0.00575 µM
[7] = protein concentration 0.0575 µM
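Also: secreted proteins added to cultured cells, EdU pulse at the end, nuclei found by Hoechst imaging, EdU status from nuclear versus surrounding ring intensity ratio, PBS as neutral control.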

## MVNLAAMVWRRLLRKRWVLALVFGLSLVYFLSSTFKQEERAVRDRNLLQVHDHNQPIPWKVQFNLGNSSRPSNQCRNSIQGKHLITDELGYVCERKDLLVNGCCNVNVPSTKQYCCDGCWPNGCCSAYEYCVSCCLQPNKQLLLERFLNRAAVAFQNLFMAVEDHFELCLAKCRTSSQSVQHENTYRDPIAKYCYGESPPELFPA [Q9H741]
MCF7; [1]
  percentage of EdU-negative: 26.4 ± 1.1%
MCF7; protein concentration 0.225 µM
  percentage of EdU-negative: 27 ± 2.9%
hTERT-HMEC; [1]
  percentage of EdU-negative: 5.34 ± 0.37%
hTERT-HMEC; protein concentration 0.225 µM
  percentage of EdU-negative: 7.52 ± 0.6%

## MHPHRDPRGLWLLLPSLSLLLFEVARAGRAVVSCPAACLCASNILSCSKQQLPNVPHSLPSYTALLDLSHNNLSRLRAEWTPTRLTQLHSLLLSHNHLNFISSEAFSPVPNLRYLDLSSNQLRTLDEFLFSDLQVLEVLLLYNNHIMAVDRCAFDDMAQLQKLYLSQNQISRFPLELVKEGAKLPKLTLLDLSSNKLKNLPLPDLQKLPAWIKNGLYLHNNPLNCDCELYQLFSHWQYRQLSSVMDFQEDLYCMNSKKLHNVFNLSFLNCGEYKERAWEAHLGDTLIIKCDTKQQGMTKVWVTPSNERVLDEVTNGTVSVSKDGSLLFQQVQVEDGGVYTCYAMGETFNETLSVELKVHNFTLHGHHDTLNTAYTTLVGCILSVVLVLIYLYLTPCRCWCRGVEKPSSHQGDSLSSSMLSTTPNHDPMAGGDKDDGFDRRVAFLEPAGPGQGQNGKLKPGNTLPVPEATGKGQRRMSDPESVSSVFSDTPIVV [Q86WK6]
MCF7; [2]
  percentage of EdU-negative: 21.9 ± 0.6%
MCF7; [3]
  percentage of EdU-negative: 29.5 ± 1.3%
hTERT-HMEC; [2]
  percentage of EdU-negative: 6.07 ± 0.64%
hTERT-HMEC; [3]
  percentage of EdU-negative: 17.3 ± 0.43%

## MGTLPWLLAFFILGLQAWDTPTIVSRKEWGARPLACRALLTLPVAYIITDQLPGMQCQQQSVCSQMLRGLQSHSVYTIGWCDVAYNFLVGDDGRVYEGVGWNIQGLHTQGYNNISLGIAFFGNKIGSSPSPAALSAAEGLISYAIQKGHLSPRYIQPLLLKEETCLDPQHPVMPRKVCPNIIKRSAWEARETHCPKMNLPAKYVIIIHTAGTSCTVSTDCQTVVRNIQSFHMDTRNFCDIGYHFLVGQDGGVYEGVGWHIQGSHTYGFNDIALGIAFIGYFVEKPPNAAALEAAQDLIQCAVVEGYLTPNYLLMGHSDVVNILSPGQALYNIISTWPHFKH [Q96LB9]
MCF7; [4]
  percentage of EdU-negative: 25.5 ± 4.8%
MCF7; [5]
  percentage of EdU-negative: 26.6 ± 2.1%
hTERT-HMEC; [4]
  percentage of EdU-negative: 5.52 ± 0.69%
hTERT-HMEC; [5]
  percentage of EdU-negative: 5.51 ± 0.12%

## MLLLPFQLLAVLFPGGNSEHAFQGPTSFHVIQTSSFTNSTWAQTQGSGWLDDLQIHGWDSDSGTAIFLKPWSKGNFSDKEVAELEEIFRVYIFGFAREVQDFAGDFQMKYPFEIQGIAGCELHSGGAIVSFLRGALGGLDFLSVKNASCVPSPEGGSRAQKFCALIIQYQGIMETVRILLYETCPRYLLGVLNAGKADLQRQVKPEAWLSSGPSPGPGRLQLVCHVSGFYPKPVWVMWMRGEQEQQGTQLGDILPNANWTWYLRATLDVADGEAAGLSCRVKHSSLEGQDIILYWRNPTSIGSIVLAIIVPSLLLLLCLALWYMRRRSYQNIP
MCF7; [1]
  percentage of EdU-negative: 25.9 ± 0.97%
MCF7; protein concentration 0.225 µM
  percentage of EdU-negative: 24.2 ± 1.6%
hTERT-HMEC; [1]
  percentage of EdU-negative: 5.01 ± 0.84%
hTERT-HMEC; protein concentration 0.225 µM
  percentage of EdU-negative: 6.06 ± 0.84%

## MKITGGLLLLCTVVYFCSSSEAASLSPKKVDCSIYKKYPVVAIPCPITYLPVCGSDYITYGNECHLCTESLKSNGRVQFLHDGSC
MCF7; [1]
  percentage of EdU-negative: 23.6 ± 1.3%
MCF7; protein concentration 0.225 µM
  percentage of EdU-negative: 24.5 ± 2.9%
hTERT-HMEC; [1]
  percentage of EdU-negative: 5.21 ± 1.1%
hTERT-HMEC; protein concentration 0.225 µM
  percentage of EdU-negative: 6.62 ± 0.67%

## MRTADREARPGLPSLLLLLLAGAGLSAASPPAAPRFNVSLDSVPELRWLPVLRHYDLDLVRAAMAQVIGDRVPKWVHVLIGKVVLELERFLPQPFTGEIRGMCDFMNLSLADCLLVNLAYESSVFCTSIVAQDSRGHIYHGRNLDYPFGNVLRKLTVDVQFLKNGQIAFTGTTFIGYVGLWTGQSPHKFTVSGDERDKGWWWENAIAALFRRHIPVSWLIRATLSESENFEAAVGKLAKTPLIADVYYIVGGTSPREGVVITRNRDGPADIWPLDPLNGAWFRVETNYDHWKPAPKEDDRRTSAIKALNATGQANLSLEALFQILSVVPVYNNFTIYTTVMSAGSPDKYMTRIRNPSRK
MCF7; [1]
  percentage of EdU-negative: 25.7 ± 0.36%
MCF7; protein concentration 0.225 µM
  percentage of EdU-negative: 29.2 ± 3.5%
hTERT-HMEC; [1]
  percentage of EdU-negative: 5.28 ± 0.13%
hTERT-HMEC; protein concentration 0.225 µM
  percentage of EdU-negative: 7.812 ± 0.044%

## MGLGTLSPRMLVWLVASGIVFYGELWVCAGLDYDYTFDGNEEDKTETIDYKDPCKAAVFWGDIALDDEDLNIFQIDRTIDLTQNPFGNLGHTTGGLGDHAMSKKRGALYQLIDRIRRIGFGLEQNNTVKGKVPLQFSGQNEKNRVPRAATSRTERIWPGGVIPYVIGGNFTGSQRAMFKQAMRHWEKHTCVTFIERSDEESYIVFTYRPCGCCSYVGRRGNGPQAISIGKNCDKFGIVVHELGHVIGFWHEHTRPDRDNHVTIIRENIQPGQEYNFLKMEPGEVNSLGERYDFDSIMHYARNTFSRGMFLDTILPSRDDNGIRPAIGQRTRLSKGDIAQARKLYRCPACGETLQESNGNLSSPGFPNGYPSYTHCIWRVSVTPGEKIVLNFTTMDLYKSSLCWYDYIEVRDGYWRKSPLLGRFCGDKLPEVLTSTDSRMWIEFRSSSNWVGKGFAAVYEAICGGEIRKNEGQIQSPNYPDDYRPMKECVWKITVSESYHVGLTFQSFEIERHDNCAYDYLEVRDGTSENSPLIGRFCGYDKPEDIRSTSNTLWMKFVSDGTVNKAGFAANFFKEEDECAKPDRGGCEQRCLNTLGSYQCACEPGYELGPDRRSCEAACGGLLTKLNGTITTPGWPKEYPPNKNCVWQVVAPTQYRISVKFEFFELEGNEVCKYDYVEIWSGLSSESKLHGKFCGAEVPEVITSQFNNMRIEFKSDNTVSKKGFKAHFFSDKDECSKDNGGCQHECVNTMGSYMCQCRNGFVLHDNKHDCKEAECEQKIHSPSGLITSPNWPDKYPSRKECTWEISATPGHRIKLAFSEFEIEQHQECAYDHLEVFDGETEKSPILGRLCGNKIPDPLVATGNKMFVRFVSDASVQRKGFQATHSTECGGRLKAESKPRDLYSHAQFGDNNYPGQVDCEWLLVSERGSRLELSFQTFEVEEEADCGYDYVELFDGLDSTAVGLGRFCGSGPPEEIYSIGDSVLIHFHTDDTINKKGFHIRYKSIRYPDTTHTKK
MCF7; protein concentration 0.014 µM
  percentage of EdU-negative: 24.6 ± 2.5%
MCF7; protein concentration 0.14 µM
  percentage of EdU-negative: 29.6 ± 1.9%
hTERT-HMEC; protein concentration 0.014 µM
  percentage of EdU-negative: 4.501 ± 0.026%
hTERT-HMEC; protein concentration 0.14 µM
  percentage of EdU-negative: 5.35 ± 1.3%

## P0C0L4
MCF7; [6]
  percentage of EdU-negative: 24.22 ± 0.12%
MCF7; [7]
  percentage of EdU-negative: 26.1 ± 0.47%
hTERT-HMEC; [6]
  percentage of EdU-negative: 4.91 ± 0.16%
hTERT-HMEC; [7]
  percentage of EdU-negative: 5.66 ± 0.38%

## MSSAARSRLTRATRQEMLFLALLLLPVVVAFARAEAEEDGDLQCLCVKTTSQVRPRHITSLEVIKAGPHCPTAQLIATLKNGRKICLDLQALLYKKIIKEHLES
MCF7; [1]
  percentage of EdU-negative: 25.1 ± 0.73%
MCF7; protein concentration 0.225 µM
  percentage of EdU-negative: 24.9 ± 0.32%
hTERT-HMEC; [1]
  percentage of EdU-negative: 5.03 ± 0.052%
hTERT-HMEC; protein concentration 0.225 µM
  percentage of EdU-negative: 5.8 ± 0.41%
